± gives the uncertainty stated by the source.
Test: protein stability index of a GFP-peptide fusion (yeast GPS) (PSI 1-4); higher = more stable; sorted into four equal gates, so the index is relative within each strain
How it was run: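 Sequencing reads from sorted gates were used to score each peptide. The library consisted of tiled 17-residue yeast protein peptides fused downstream of GFP on a Cherry-expressing plasmid, pooled and carried in yeast. Mid-log cultures in leucine-free medium were split into four equal gates by GFP/Cherry ratio, and each gate's plasmids were PCR-amplified and Illumina-sequenced. The protein stability index adds up, over all gates, the read frequency multiplied by the gate number.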

| Sequence | protein stability index (doa10∆) | protein stability index (pdr5∆) | protein stability index (san1∆) | protein stability index (ubr1∆) |
| --- | --- | --- | --- | --- |
| FKCQEKDKGVYVVTSDE [SIR2] | 2.94 ± 0.076 | 3.08 ± 0.085 | 3.27 ± 0.072 | 3.34 ± 0.054 |
| FKDVEHISFNFSMLQMA [BRR2] | 1.76 ± 0.076 | 1.59 ± 0.056 | 2.33 ± 0.15 | 2.03 ± 0.049 |
| FKGLETPLKARQREMAE [YLR018C/POM34] | 3.27 ± 0.1 | 3.29 ± 0.1 | 2.91 ± 0.088 | 3.41 ± 0.069 |
| FKKQMQTIMKMGPLSNI [SRP54] | 2.59 ± 0.11 | 3.14 ± 0.074 | 3.03 ± 0.1 | 2.92 ± 0.072 |
| FKLFNKYRPETAAEKKE [RPL8A] | 2.56 ± 0.079 | 2.64 ± 0.083 | 2.5 ± 0.083 | 2.74 ± 0.071 |
| FKRDLLREKEDKKNSSD [YJL039C/NUP192] | 3.38 ± 0.13 | 2.92 ± 0.18 | 3.23 ± 0.064 | 3 ± 0.14 |
| FKSSVEMGKTDKSTKTA [YOR098C/NUP1] | 3.45 ± 0.095 | 3.24 ± 0.099 | 3.24 ± 0.05 | 3.43 ± 0.063 |
| FKSYATRTVITDWDPQF [SMC2] | 2.88 ± 0.11 | 3.06 ± 0.083 | 2.72 ± 0.12 | 2.85 ± 0.097 |
| FKVYEPLLLVGLDKFSN [RPS16A] | 1.72 ± 0.058 | 1.96 ± 0.055 | 1.85 ± 0.074 | 2.14 ± 0.043 |
| FLEKEKQLTLLRSKLFQ [SMC4] | 2.46 ± 0.094 | 1.99 ± 0.067 | 1.86 ± 0.12 | 2.56 ± 0.043 |
| FLFQNINFERIDEVFSW [GRR1] | 2.36 ± 0.059 | 2.36 ± 0.071 | 2.47 ± 0.056 | 2.28 ± 0.048 |
| FLKHNGEEDAVDLLLEI [RPN1] | 3.23 ± 0.082 | 3.16 ± 0.12 | 3.24 ± 0.072 | 3.3 ± 0.05 |
| FLLSAMTMASKSLEVVN [NSL1] | 1.4 ± 0.08 | 1.45 ± 0.069 | 1.54 ± 0.15 | 1.61 ± 0.047 |
| FLLTQSKVSIEQRKEAA [RPN7] | 2.27 ± 0.13 | 2.53 ± 0.15 | 2.42 ± 0.088 | 2.48 ± 0.058 |
| FLQELLKKVQQQQQAAA [SWI1] | 2.06 ± 0.081 | 2.6 ± 0.088 | 2.47 ± 0.1 | 2.85 ± 0.1 |
| FLQRIDFQIDGNIFELL [RRI2] | 2.63 ± 0.1 | 2.92 ± 0.071 | 2.37 ± 0.07 | 2.64 ± 0.048 |
| FLQSVDITGIRDVSDDV [GRR1] | 1.74 ± 0.041 | 2.12 ± 0.045 | 1.89 ± 0.055 | 1.69 ± 0.036 |
| FLRTQFLKLYVLVKWTR [RGR1] | 1.46 ± 0.084 | 1.95 ± 0.065 | 1.63 ± 0.11 | 1.56 ± 0.06 |
| FLTNYNVRMDTMANILY [RPB2] | 3.58 ± 0.17 | 3.02 ± 0.098 | 3.48 ± 0.1 | 3.48 ± 0.14 |
| FLVEYEGQENNYNSTSR [SIR4] | 2.85 ± 0.093 | 2.76 ± 0.08 | 2.29 ± 0.1 | 3.24 ± 0.052 |
| FMDEIDSIGSTRVEGSG [RPT6] | 2.57 ± 0.076 | 2.56 ± 0.12 | 2.84 ± 0.069 | 2.46 ± 0.073 |
| FMEIVLEYNVALNDVYL [YML031W/NDC1] | 2.47 ± 0.09 | 2.3 ± 0.084 | 2.22 ± 0.11 | 1.66 ± 0.064 |
| FMLRKQDPKTLVALLSR [SSN2] | 1.6 ± 0.055 | 1.84 ± 0.041 | 1.85 ± 0.079 | 2.09 ± 0.043 |
| FMNDAAADVSAVDAKQL [YML103C/NUP188] | 2.52 ± 0.095 | 2.54 ± 0.099 | 3.06 ± 0.091 | 2.21 ± 0.081 |
| FNFGGKSDTVTSASQPF [YOR098C/NUP1] | 2.21 ± 0.056 | 2.03 ± 0.056 | 2.07 ± 0.071 | 1.93 ± 0.049 |

| Sequence | protein stability index (doa10∆) | protein stability index (pdr5∆) | protein stability index (san1∆) | protein stability index (ubr1∆) |
| --- | --- | --- | --- | --- |
| FNGIENQSAYEWNGKSF [ISW2] | 3.09 ± 0.12 | 3.25 ± 0.2 | 3.31 ± 0.076 | 3.22 ± 0.12 |
| FNLNLPPSSFGRSHTRN [REC8] | 3.35 ± 0.11 | 2.51 ± 0.1 | 3.04 ± 0.058 | 3.27 ± 0.19 |
| FNQEGDYNFKYGIPLEF [PRP8] | 3.14 ± 0.084 | 3.11 ± 0.077 | 1.92 ± 0.076 | 3.37 ± 0.077 |
| FNRDNKVSPAAAAKKAL [RPS26B] | 2.4 ± 0.12 | 2.5 ± 0.21 | 2.61 ± 0.11 | 2.79 ± 0.12 |
| FNSVKSFDEWFNTPFAN [SNF2] | 2.9 ± 0.091 | 3.14 ± 0.082 | 3.43 ± 0.085 | 3.26 ± 0.11 |
| FNTPFANTGGQDKIELS [SNF2] | 1.89 ± 0.18 |  | 1.55 ± 0.2 | 1.87 ± 0.2 |
| FNVHEVPRAALEERFDP [YMR129W/POM152] | 3.13 ± 0.067 | 3.15 ± 0.078 | 3.16 ± 0.069 | 3.03 ± 0.079 |
| FPGDSFPVDPTTPVKLG [RRP40] | 2.45 ± 0.058 | 2.58 ± 0.053 | 2.65 ± 0.045 | 2.62 ± 0.048 |
| FPGKPVDVQAPTDDKTL [YOR098C/NUP1] | 2.78 ± 0.068 | 3.02 ± 0.1 | 2.93 ± 0.089 | 2.75 ± 0.071 |
| FPNGFKNFENGPKKNVF [RPC34] | 3.26 ± 0.083 | 3.27 ± 0.082 | 3.21 ± 0.062 | 3.44 ± 0.045 |
| FPPGVIGIDEGSDEAYV [RPC40] | 3.59 ± 0.091 | 3.41 ± 0.085 | 3.29 ± 0.077 | 3.51 ± 0.056 |
| FPQTAMLRRHAAPPSTN [DIS3] | 1.89 ± 0.1 | 1.93 ± 0.12 |  | 1.74 ± 0.07 |
| FPRNGKAPEAEQVLSAA [RPL13A] | 3.14 ± 0.098 | 2.76 ± 0.093 | 3.13 ± 0.1 | 2.77 ± 0.05 |
| FQAQQAQQAQQAQQAQQ [SNF2] | 2.86 ± 0.052 | 3 ± 0.046 | 2.85 ± 0.035 | 2.73 ± 0.035 |
| FQIDNDNIRYATALQTC [SMC2] | 1.8 ± 0.052 | 1.78 ± 0.047 | 1.45 ± 0.073 | 1.74 ± 0.052 |
| FQKAQGSYAGHRKHIAV [YCG1] |  | 2.11 ± 0.28 | 2.29 ± 0.22 | 2.46 ± 0.095 |
| FQNLELETEQLSSELDS [SMC2] | 2.08 ± 0.12 | 2.58 ± 0.11 | 1.55 ± 0.14 | 2.69 ± 0.13 |
| FQSVQLNINNPNFLIMQ [SMC2] | 2.6 ± 0.06 | 2.62 ± 0.071 | 1.75 ± 0.062 | 2.1 ± 0.061 |
| FRHFIGIKAKHDKNIQK [ISW2] | 2.68 ± 0.089 | 2.6 ± 0.085 | 2.48 ± 0.06 | 2.51 ± 0.078 |
| FRLIDTGALINNLEPRQ [RPN11] | 2.81 ± 0.23 | 3.18 ± 0.24 |  |  |
| FRPIEIFTDFLPSSNGS [RRP42] | 2.19 ± 0.065 | 3.07 ± 0.08 | 3.09 ± 0.056 | 2.87 ± 0.063 |
| FSAPIRPDIVHTVFTSV [RPL4A] | 1.7 ± 0.056 | 2.07 ± 0.057 | 1.73 ± 0.094 | 2.16 ± 0.056 |
| FSEVYEYNRLKVQDAIE [LIN1] | 2.71 ± 0.059 | 2.17 ± 0.055 | 3.04 ± 0.076 | 2.89 ± 0.086 |
| FSFGGTQTGQNTGPSTG [YGL172W/NUP49] | 3.59 ± 0.23 | 3.34 ± 0.17 | 3.18 ± 0.1 | 3.1 ± 0.11 |
| FSFGKSDAAKEPPGSNT [YOR098C/NUP1] |  | 3.58 ± 0.16 | 2.84 ± 0.13 | 2.68 ± 0.2 |

Reference: the supplement of paper PMC9732359
